Assay [1] has as its target T1, C1q purified from pooled normal human sera (human, UniProt P02746 28-253; P02747 29-245).
T1 construct: mature; Bought from Complement Technology, purified from serum; It names no B or C chains; Biotinylated for the bead assay; also called human C1q; first component of complement
Description: SPR kinetics, C1q immobilised on a CM5 chip, HMGB1 redox form as analyte in a concentration series, 1:1 fit. The protocol: A 1:1 mixture of N-hyrdoxysuccinimide and N-ethyl-N-(dimethyaminopropyl) carbodiimide was used to activate 2 flow-cells of the CM5 chip. […] The analyte (HMGB1) was diluted in 1× HBS-N+0.05% tween-20 buffer (filtered—0.22 um). Three redox states of HMGB1 were sequentially injected at a flow rate of 20 μl/min for 60 s at 25° C., the dissociation time was set for 3 minutes. […]

In assay [2] the target is T1, C1q purified from pooled normal human …. Description: SPR (BIAcore T200), HMGB1 immobilized on a CM5 chip, C1q as analyte at 5 concentrations, 1:1 fit. The protocol:
Surface Plasmon Resonance analysis (SPR): For real-time binding interaction studies, a BIAcore T200 instrument (GE Healthcare) was used. […] A 1:1 mixture of N-hydroxysuccinimide and N-ethyl-N-(dimethyaminopropyl) carbodiimide was used to activate 2 flow-cells of the CM5 chip. […] The analytes were diluted in 1× PBS+0.01% (vol/vol) tween-20 buffer. The analytes were sequentially injected at a flow rate of 30 μl/min for 60 s at 25° C. The KD was determined using the BIAcore evaluation software 2.0 (GE Healthcare) supposing a 1:1 binding ratio.
On the technique in general: SPR reads the build-up and loss of mass on a sensor chip optically.

Assay [3] addresses T2, RAGE on human monocytes (human, UniProt Q15109 23-404).
T2 construct: whole, on cells
Description: proximity ligation assay on human monocytes, condition without C1q.

Assay [4] concerns the target T3, Human recombinant RAGE (hrRAGE), soluble RAGE (human, UniProt Q15109 24-344, limits assumed).
T3 construct: Called soluble RAGE (sRAGE) in the SPR and bead experiments; also called sRAGE; Receptor for Advanced Glycation Endproducts
The assay can be described thus: SPR (data not shown).

T1 sequence (P02746 28-253, chain 2 of 2): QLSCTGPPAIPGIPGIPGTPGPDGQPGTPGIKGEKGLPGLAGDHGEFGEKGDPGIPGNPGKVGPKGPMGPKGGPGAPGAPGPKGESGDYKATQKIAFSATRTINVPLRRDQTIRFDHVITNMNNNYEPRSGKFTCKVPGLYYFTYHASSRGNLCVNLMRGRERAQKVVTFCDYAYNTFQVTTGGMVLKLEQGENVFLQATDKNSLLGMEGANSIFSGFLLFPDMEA
T1 sequence (P02747 29-245, chain 3 of 2): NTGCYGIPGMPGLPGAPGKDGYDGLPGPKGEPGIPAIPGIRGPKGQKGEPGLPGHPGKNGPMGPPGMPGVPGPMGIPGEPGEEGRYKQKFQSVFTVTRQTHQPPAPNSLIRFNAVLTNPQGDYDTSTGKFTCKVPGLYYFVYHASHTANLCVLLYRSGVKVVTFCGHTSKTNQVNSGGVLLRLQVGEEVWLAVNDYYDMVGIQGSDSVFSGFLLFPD
T2 sequence (Q15109 23-404): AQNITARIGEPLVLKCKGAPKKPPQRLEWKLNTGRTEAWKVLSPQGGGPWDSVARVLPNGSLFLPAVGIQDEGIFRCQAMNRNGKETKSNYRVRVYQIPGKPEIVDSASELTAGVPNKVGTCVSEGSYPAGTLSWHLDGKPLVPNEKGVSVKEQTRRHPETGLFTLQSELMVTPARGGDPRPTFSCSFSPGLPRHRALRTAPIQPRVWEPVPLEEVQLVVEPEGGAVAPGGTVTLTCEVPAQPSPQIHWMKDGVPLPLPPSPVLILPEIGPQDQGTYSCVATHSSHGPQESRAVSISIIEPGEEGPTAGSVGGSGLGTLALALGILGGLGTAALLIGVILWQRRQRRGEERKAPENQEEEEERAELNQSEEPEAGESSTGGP
T3 sequence (Q15109 24-344 limits assumed): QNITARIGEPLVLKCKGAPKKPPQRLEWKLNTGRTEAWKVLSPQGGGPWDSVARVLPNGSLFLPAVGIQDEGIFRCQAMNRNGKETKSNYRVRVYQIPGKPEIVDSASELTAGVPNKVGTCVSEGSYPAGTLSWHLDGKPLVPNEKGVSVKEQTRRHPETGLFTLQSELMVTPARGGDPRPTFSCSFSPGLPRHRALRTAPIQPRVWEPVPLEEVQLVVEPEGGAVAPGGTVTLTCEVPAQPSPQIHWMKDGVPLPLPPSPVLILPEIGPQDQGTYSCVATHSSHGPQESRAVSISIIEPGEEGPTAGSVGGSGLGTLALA

B1: Disulfide HMGB1 (ligand, UniProt P09429 1-215, looked up)
chain: MGKGDPKKPRGKMSSYAFFVQTCREEHKKKHPDASVNFSEFSKKCSERWKTMSAKEKGKFEDMAKADKARYEREMKTYIPPKGETKKKFKDPNAPKRPPSAFFLFCSEYRPKIKGEHPGLSIGDVAKKLGEMWNNTAADDKQPYEKKAAKLKEKYEKDIAAYRAKGKPDAAKKGVVKAEKSKKKKEEEEDEEDEEDEEEEEDEEDEDEEEDDDDE
modifications: disulfide bond between C23 and C45, with a free cysteine at C106
notes: also called disulfide form of HMGB1
As a reminder, the Kd is the concentration at which binding is half-saturated. In assay [1], B1 gave a Kd of 210 nM.

B2: Recombinant HMGB1 (Calmodulin Binding Protein Epitope, Cbp tagged) (ligand, human, UniProt P09429 1-215, looked up, not shown: small tags and cut ends)
chain: MGKGDPKKPRGKMSSYAFFVQTCREEHKKKHPDASVNFSEFSKKCSERWKTMSAKEKGKFEDMAKADKARYEREMKTYIPPKGETKKKFKDPNAPKRPPSAFFLFCSEYRPKIKGEHPGLSIGDVAKKLGEMWNNTAADDKQPYEKKAAKLKEKYEKDIAAYRAKGKPDAAKKGVVKAEKSKKKKEEEEDEEDEEDEEEEEDEEDEDEEEDDDDE
notes: also called High Mobility Group Box 1
As for B2, in assay [2], the affinity, expressed as Kd, was 200 nM.

B3: All-thiol HMGB1 (ligand, not shown: small tags and cut ends)
chain: MGKGDPKKPRGKMSSYAFFVQTCREEHKKKHPDASVNFSEFSKKCSERWKTMSAKEKGKFEDMAKADKARYEREMKTYIPPKGETKKKFKDPNAPKRPPSAFFLFCSEYRPKIKGEHPGLSIGDVAKKLGEMWNNTAADDKQPYEKKAAKLKEKYEKDIAAYRAKGKPDAAKKGVVKAEKSKKKKEEEEDEEDEEDEEEEEDEEDEDEEEDDDDE
modifications: All-thiol form: C23, C45 and C106 all stand as free reduced thiols, with no C23-C45 disulfide. The letters are unchanged.
notes: Analyte in the SPR assays on immobilised C1q; also called reduced HMGB1
In assay [1], B3 came in with a Kd of 1060 nM.

B4: LAIR-1 on human monocytes (receptor, UniProt Q6GTX8 22-287, looked up)
chain: QEEDLPRPSISAEPGTVIPLGSHVTFVCRGPVGVQTFRLERDSRSTYNDTEDVSQASPSESEARFRIDSVREGNAGLYRCIYYKPPKWSEQSDYLELLVKESSGGPDSPDTEPGSSAGPTQRPSDNSHNEHAPASQGLKAEHLYILIGVSVVFLFCLLLLVLFCLHRQNQIKQGPPRSKDEEQKPQQRPDLAVDVLERTADKATVNGLPEKDRETDTSALAAGSSQEVTYAQLDHWALTQRTARAVSPQSTKPMAESITYAAVARH
notes: whole, on cells; also called Leukocyte-Associated Ig-like Receptor 1; CD305
Take B4: the binding result in assay [3] is listed as “no binding”.

B5: C1q tail (C1q collagen-like tail) purified from whole C1q (other)
chain 1: EDLCRAPDGKKGEAGRPGRRGRPGLKGEQGEPGAPGIRTGIQGLKGDQGEPGPSGNPGKVGYPGPSGPLGARGIPGIKGTKGSPGNI
chain 2: not shown
chain 3: not shown
notes: domain: collagen-like tail; Fragment prepared from whole serum C1q 'as previous described (22)'; also called C1q collagen tail
On to B5, for which the binding result in assay [4] was “no binding”.

Values taken from patent publication US20190169232A1 (FEINSTEIN INSTITUTES FOR MEDICAL RESEARCH, published 2019).
